Measured values as given in patent US12576170B2, “Rk polypeptide radiopharmaceutical targeting HER2 and preparation method thereof” (BEIJING GILUNTIDE PHARMACEUTICAL CO., LTD., priority 2019, dated 2026).

Experiments:
[1] = water solubility; format: physicochemical; conditions: compared with refvffly polypeptide
[2] = biological target: T1, HER2 (Homo sapiens, UniProt P04626); experiment: correlation between uptake in tumor and HER2 expression level in tumor models; format: in vivo, mouse; parameters: tumor cells with different HER2 expression levels, including human breast cancer cell lines SKBR3, MCF7 and MDA-MB-468; endogenous in cells; host or cells: SKBR3, MCF7, MDA-MB-468, HT29, BxPC3 human tumour cells as xenografts in mice; conditions: SKBR3 (high), HT29 (moderate), BxPC3 (low HER2) tumor models
Description: (§1) Thus the polypeptide is suitable for delayed imaging and more beneficial for tumor diagnosis.
Correlation between uptake of ^99mTc-HYNIC-PEG4-(Aoc-rk)2 in tumor and HER2 expression level: tumor cells with different HER2 expression levels, including human breast cancer cell lines SKBR3, MCF7 and MDA-MB-468, human colorectal cancer cell line HT29 and human pancreatic cancer cell line BxPC3, were selected and subjected to flow cytometry for quantitative analysis of HER2 expression in cells. Then the tumor models of the cells were subjected to SPECT/CT imaging, and the uptake in tumor was quantitatively analyzed. Finally, the correlation between HER2 expression and the uptake in tumor was investigated.
Flow cytometry: The cells were digested using 0.25% EDTA/pancreatin, blocked for 15 min, centrifuged, washed with PBS, and divided into a treatment group and a control group. […] The two groups were incubated for 0.5 h in the dark at 4° C., washed for 3 times using cold PBS, and analyzed on a flow cytometer. The mean fluorescence intensity (MFI) of the bound antibody on each cell was calculated through a standard flow cytometry curve. […]
Analysis of correlation between HER2 expression level and uptake in tumor: the linear relationship between HER2 expression level (MFI) and uptake in tumor (% ID/g) was plotted using prism 7.0 software, and the R^2 value was calculated.

[3] = biological target: T1, HER2; experiment: HER2 binding specificity detection at protein and cell level; conditions: protein and cellular levels, FIG. 12
[4] = tested on: HER2-positive model (SKBR3 breast tumor model); conditions: in vivo
Description: This is especially critical for breast cancer tumors in situ in the thorax, since the contrast agent ^99mTc-HPArk2 of the present invention is more advantageous in imaging breast cancer lesions in situ.
The specific difference of in vivo pharmacokinetics between the present invention and the radiopharmaceutical disclosed in Patent No. CN 109045313 A is shown in FIG. 11. FIG. 11 illustrates the uptake in tumor and comparison of data corresponding to the images in FIG. 10. […] FIG. 11 panel B illustrates the results of calculations from FIG. 11 panel A. The uptakes in tumor and the organs were compared and analyzed. […] As is also seen in FIG. 10, a smaller tumor was visualized by ^99mTc-HPArk2 imaging, and the imaging effect is guaranteed. […] Therefore, the contrast ratio for imaging is better, and particularly, the low uptake in heart and liver in the chest cavity may facilitate clear imaging of the in-situ tumor of the breast cancer.

[5] = tested on: HER2-negative EGFR-positive MDA-MB-468 breast cancer model; experiment: imaging in HER2-negative/EGFR-positive tumor model; format: in vivo; conditions: FIG. 13
Description: Since EGFR and HER2 are members of the same family and have similar structures, they are difficult to be distinguished by targeting molecules. As such, false positives and false negatives are inevitable when detecting tumors.

[6] = parameters: species or system NOD SCID mice; conditions: mouse, in vivo, iv
Description: The biodistribution of ^99mTc-HYNIC-PEG4-(Aoc-rk)2 in tumor-bearing mice: NOD SCID mice bearing SKBR3 tumor were randomized with 4 mice in each group. Each group of mice were injected with different ^99mTc-labeled polypeptides via tail vein, and sacrificed at 30 and 60 min after injection. Samples of blood and major organs were collected, weighed and measured for radiological counting, and the decay-corrected percent injection dose rate per gram of tissue (% ID/g) was calculated. The results of the experiment are shown in FIG. 8, in which the uptake in tumor at 30 min was 3.7% ID/g, and the uptake was low in blood and organs other than kidney.

[7] = tested on: MCF7 of no HER2 expression; experiment: cell binding assay, MCF7 cells; parameters: species or system Human
Description: (§2) The rk polypeptide radiopharmaceuticals were sampled for radioactive HPLC analysis. The HPLC was conducted in an Agilent 1260 HPLC system equipped with a YMC-Pack ODS-A analytic column (250× 4.6 mm, I.D. S-5 μm, 12 nm), and a 20-min gradient elution was performed at a flow rate of 1 mL/min, wherein the mobile A phase was deionized water (containing 0.05% TFA) and the mobile B phase was acetonitrile (containing 0.05% TFA). The elution gradients were 90% A and 10% B at beginning, and 30% A and 70% B at 20 min. The labeling rate of ^99mTc-HYNIC-PEG4-(Aoc-rk)2 was >95%, and the radiochemical purity was >98% as measured by HPLC with a Sep-Pak C18 column. The results of a binding affinity assay of HYNIC-PEG4-(Aoc-rk)2 to HER2 are shown in FIG. 3: Human breast cancer cells SKBR3 of high HER2 expression and MCF7 of no HER2 expression were used as experimental samples, and ^99mTc-HYNIC-PEG4-(Aoc-rk)2 was used as a radioactive ligand specifically binding to HER2 receptor. In this cell binding assay, the binding capacities of ^99mTc-HYNIC-PEG4-(Aoc-rk)2 to SKBR3 and MCF7 were measured, with a blocking group treated with excessive HYNIC-PEG4-(Aoc-rk)2 to verify the binding specificity of ^99mTc-HYNIC-PEG4-(Aoc-rk)2 to SKBR3.

[8] = tested on: SKBR3 of high HER2 expression; experiment: cell binding assay, SKBR3 cells; parameters: species or system Human
Description: as §2

[9] = tested on: breast cancer; format: in vivo, human patients
Description: SPECT/CT imaging of ^99mTc-HYNIC-PEG4-(Aoc-rk)2 in breast cancer patients: with approval by the Ethics Review Committee of the Peking Union Medical College Hospital and informed consent, 20 female patients with suspected breast cancer by molybdenum target X-ray or ultrasonography were recruited and subjected to SPECT/CT imaging and PET/CT imaging 1 week before surgery. The patients were administered intravenously with 11.1 MBq (0.3 mCi)/kg body weight of ^99mTc-HYNIC-PEG4-(Aoc-rk)2 30 min before SPECT/CT scan, and 5.6 MBq (0.15 mCi)/kg body weight of ^18F-FDG 60 min before PET/CT scan.

[10] = tested on: SKBR3 breast tumor model; parameters: species or system NOD SCID mice; conditions: mouse, in vivo
Description: as §1
SPECT/CT imaging: Different tumor models with similar tumor sizes were selected, administered with 1 mCi ^99mTc-HYNIC-PEG4-(Aoc-rk)2 through tail vein, and subjected to SPECT/CT imaging 0.5 h later. The SPECT images were reconstructed after imaging, fused with the CT image to give 3D images of the mouse, and the tumor lesion was extracted by In VivoScope software for quantitative analysis.
Preparation of ^99mTc-HYNIC-PEG4-(PEG4-rk) 2:500 μL of a mixture containing 5.0 mg of trisodium triphenylphosphine-3,3′, 3″-trisulfonate (TPPTS), 6.5 mg of tricine, 38.5 mg of disodium succinate hexahydrate, 12.7 mg of succinic acid and 50 μg of HYNIC-PEG4-(PEG4-rk)2 was prepared in a 10 mL vial and lyophilized. 1.0-1.5 mL of Na^99mTcO4 solution (10-35 mCi) was added to the lyophilized powder. The vial was incubated in a water bath at 100° C. for 20-25 min, and cooled at room temperature for 10 min after the reaction is completed to give the rk polypeptide radiopharmaceutical. The rk polypeptide radiopharmaceuticals were sampled for radioactive HPLC analysis. The HPLC was conducted in an Agilent 1260 HPLC system equipped with a YMC-Pack ODS-A analytic column (250× 4.6 mm, I.D. S-5 μm, 12 nm), and a 20-min gradient elution was performed at a flow rate of 1 mL/min, wherein the mobile A phase was deionized water (containing 0.05% TFA) and the mobile B phase was acetonitrile (containing 0.05% TFA). The elution gradients were 90% A and 10% B at beginning, and 30% A and 70% B at 20 min. The labeling rate of ^99mTc-HYNIC-PEG4-(PEG4-rk)2 was >95%, and the radiochemical purity was >98% as measured by a Sep-Pak C18 column.

CC(C)C[C@@H](NC(=O)[C@@H](CCCNC(=N)N)NC(=O)[C@@H](CC(C)C)NC(=O)[C@@H](CCC(=O)O)NC(=O)[C@@H](Cc1c[nH]c2ccccc12)NC(=O)[C@@H](CC(N)=O)NC(=O)[C@H](N)CCCNC(=N)N)C(=O)N[C@H](CCCCN)C(=O)O [rk polypeptide, Arg-Asn-Trp-Glu-Leu-Arg-Leu-Lys]
water solubility [1]: superior to that of refvffly polypeptide

CC(C)C[C@@H](NC(=O)[C@@H](CCCNC(=N)N)NC(=O)[C@@H](CC(C)C)NC(=O)[C@@H](CCC(=O)O)NC(=O)[C@@H](Cc1c[nH]c2ccccc12)NC(=O)[C@@H](CC(N)=O)NC(=O)[C@@H](CCCNC(=N)N)NC(=O)CCCCCCCNC(=O)CC[C@H](NC(=O)CCOCCOCCOCCOCCNC(=O)c1ccc(NN)nc1)C(=O)NCCCCCCCC(=O)N[C@H](CCCNC(=N)N)C(=O)N[C@H](CC(N)=O)C(=O)N[C@H](Cc1c[nH]c2ccccc12)C(=O)N[C@H](CCC(=O)O)C(=O)N[C@H](CC(C)C)C(=O)N[C@H](CCCNC(=N)N)C(=O)N[C@H](CC(C)C)C(=O)N[C@H](CCCCN)C(=O)O)C(=O)N[C@H](CCCCN)C(=O)O [^99mTc-HYNIC-PEG4-(Aoc-rk)2, metal not drawn]
relation of uptake to HER2 expression level (SPECT/CT) [2]: linearly related to the expression level of HER2
HER2 specificity [3]: good specificity at both protein and cellular levels
hepatic uptake (FIG. 10) [4]: lowest
ratios of tumor to normal tissues such as blood, heart, liver, spleen, intestine and stomach [4]: relatively higher
uptake in blood, heart, liver, spleen, intestine, stomach, bone and other tissues [4]: relatively lower
uptake in tumor (biodistribution, FIG. 11) [4]: relatively higher uptake in tumor than those of ^99mTc-HP4-ref and ^99mTc-HP24-ref
uptake in tumor (image quantification, FIG. 10) [4]: higher uptake in tumor than that of ^99mTc-HP24-ref, with no significant difference from ^99mTc-HP4-ref
uptake ratio of tumor to liver [4]: highest
imaging result in HER2-negative EGFR-positive model [5]: negative result
tissue uptake at 0.5 h [6]: 3.7 %ID/g
binding rate per 10^5 cells [7]: 1.14 % per 10^5 cells
binding rate per 10^5 cells, blocking group ([8]; SKBR3 blocking group treated with excessive HYNIC-PEG4-(Aoc-rk)2): 1.24 % per 10^5 cells
binding rate per 10^5 cells ([8]; SKBR3 cells): 4.49 % per 10^5 cells
patients with lymph node metastasis in whom metastasis was shown ([9]; 5 of 6 patients): 83%
patients with pathologically diagnosed breast cancer whose tumor was accurately imaged ([9]; 14 of 15 patients, 11.1 MBq/kg i.v., 30 min before scan): 93%
adverse effects during the clinical trial ([9]; human, in vivo): No adverse effect related to the radiopharmaceutical was found
tumor visualization in delayed imaging [10]: still clearly visualized
uptake in tumor (SPECT/CT) [10]: clearly visible and significantly higher than that of the monomer
uptake in tumor, Herceptin blocking group [10]: substantially unchanged
uptake in tumor, cold peptide blocking group [10]: significantly reduced uptake in tumor
whole-body background (SPECT/CT) [10]: clean whole-body background
